pIC50: −log10 of the molar value.
The sequences below were run against HLA-A*02:01 (assay: IEDB peptide-MHC binding, purified MHC/competitive/fluorescence; ≥ and ≤ were set here for values at or beyond the usual limits of such assays). Details: source organism: Homo sapiens.

Question: How did the pIC50 turn out when GSHLVEALYLV was run?
Answer: 5.43

Question: With HLVEALYLVCG as the sequence, how does the pIC50 read?
Answer: 6.72

Question: How did the pIC50 turn out when ALYLVCGER was run?
Answer: ≤ 4.04

Question: How did the pIC50 turn out when YLVCGERGFF was run?
Answer: 5.64

Question: How did the pIC50 turn out when ALYLVCGERG was run?
Answer: ≤ 4.00

Question: HLCGSHLVEAL was tested. Which pIC50 did it give?
Answer: 6.36

Question: With HLVEALYLVC as the sequence, how does the pIC50 read?
Answer: 5.76

Question: YLVCGERGFFY was tested. Which pIC50 did it give?
Answer: 5.07

Question: With ALYLVCGERGF as the sequence, how does the pIC50 read?
Answer: 5.65

Question: SHLVEALYL was tested. Which pIC50 did it give?
Answer: 4.23
